Test results: article PMC8849478
pKd: −log10 of the molar value.

Assays:
[1] = molecular target: human haptoglobin, mixture of phenotypes Hp2-1 and Hp2-2 (human) (UniProt P00738); assay: stopped-flow fluorescence spectrometry; Hp (0.25 μM, Hb tetramer binding basis) rapidly mixed with excess Hb/metHb at various concentrations; excitation 285 nm, emission 310 nm; monoexponential fit gives pseudo first order constants, linear regression against Hb/metHb concentration gives the bimolecular rate constant
human hemoglobin (human) = human hemoglobin (human) (UniProt P69905); assay: SEC; tetramer to dimers; SEC-HPLC of samples at 1.25, 2.5, 5, 10 and 20 μM (heme basis) after incubation in 0.1 M PBS pH 7.4 at 4°C for one week; fraction of tetramers by deconvolution, Kd from the intercept of the linearised plot (Eq 3)
[2] = molecular target: human methemoglobin (human) (UniProt P69905); assay: as above

Sequence of bovine methemoglobin (P01966 whole entry): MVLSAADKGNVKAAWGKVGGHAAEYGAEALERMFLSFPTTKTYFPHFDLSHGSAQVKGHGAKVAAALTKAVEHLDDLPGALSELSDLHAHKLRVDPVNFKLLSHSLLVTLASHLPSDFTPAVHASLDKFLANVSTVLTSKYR
Sequence of bovine methemoglobin (P02070 whole entry): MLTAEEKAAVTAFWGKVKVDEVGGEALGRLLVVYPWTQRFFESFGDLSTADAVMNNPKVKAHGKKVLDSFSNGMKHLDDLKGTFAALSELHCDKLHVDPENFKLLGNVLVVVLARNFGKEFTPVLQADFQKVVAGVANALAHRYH
Sequence of bovine hemoglobin (P01966 whole entry): as the sequence (P01966 whole entry) above
Sequence of bovine hemoglobin (P02070 whole entry): as the sequence (P02070 whole entry) above
Sequence of human methemoglobin, P69905 1-142; P68871 1-147 (complex; other documents disagree on this pair) (P69905 whole entry): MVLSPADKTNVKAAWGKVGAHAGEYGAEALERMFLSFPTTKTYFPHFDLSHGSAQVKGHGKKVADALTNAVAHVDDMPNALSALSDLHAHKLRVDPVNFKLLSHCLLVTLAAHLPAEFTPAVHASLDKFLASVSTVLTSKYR
Sequence of human methemoglobin, P69905 1-142; P68871 1-147 (complex; other documents disagree on this pair) (P68871 whole entry): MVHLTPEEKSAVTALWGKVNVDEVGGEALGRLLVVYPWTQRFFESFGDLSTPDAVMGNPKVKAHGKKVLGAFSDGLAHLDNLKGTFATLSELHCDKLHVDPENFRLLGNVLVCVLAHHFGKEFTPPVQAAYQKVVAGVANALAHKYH
Sequence of human hemoglobin, P69905 1-142; P68871 1-147 (complex; other documents disagree on this pair) (P69905 whole entry): as the sequence (P69905 whole entry) above
Sequence of human hemoglobin, P69905 1-142; P68871 1-147 (complex; other documents disagree on this pair) (P68871 whole entry): as the sequence (P68871 whole entry) above

| Substance | kon [1] | further results |
| --- | --- | --- |
| bovine hemoglobin (from UniProt P01966 1-142; P02070 1-145) (complex) | 147000 M⁻¹ s⁻¹ | – |
| bovine methemoglobin (from UniProt P01966 1-142; P02070 1-145) (complex) | 140000 M⁻¹ s⁻¹ | – |
| human hemoglobin, P69905 1-142; P68871 1-147 (complex; other documents disagree on this pair) | – | pKd (human hemoglobin (human)): 6.64 |
| human methemoglobin, P69905 1-142; P68871 1-147 (complex; other documents disagree on this pair) | – | pKd [2]: 6.35 |
